According to the supplement of paper PMC9233669:
This sample holds only a part of the variants without activity.

Assays:
biotinyl-Phe-oxazolone = assay: self-aminoacylation, catalytic enhancement (BFO) (fold over background); higher = more active; k-Seq, kA / k0A0; sequences stand for … in GGGAAUGGAUCCACAUCUACGAAUUC…UUCACUGCAGACUUGACGAAGCUG
Method in brief: (§1)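 Catalytic enhancement equals the median kA over the uncatalyzed rate, the latter read from the low-activity peak of a bimodal Gaussian fit. Values of kA came from fitting each sequence's fraction reacted to a pseudo-first-order model, with 1000 bootstraps. Reacted RNA was captured with streptavidin and quantified by triplicate qPCR and Illumina sequencing after 90 minutes at room temperature with 2–1250 μM biotinyl-aminoacyl-oxazolone and 0.43 μM mutagenized RNA pools bearing a 21-nt variable region.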

biotinyl-Ile-oxazolone = assay: self-aminoacylation, catalytic enhancement (BIO) (fold over background); higher = more active; k-Seq, kA / k0A0; sequences stand for … in GGGAAUGGAUCCACAUCUACGAAUUC…UUCACUGCAGACUUGACGAAGCUG
Method in brief: as §1

biotinyl-Met-oxazolone = assay: self-aminoacylation, catalytic enhancement (BMO) (fold over background); higher = more active; k-Seq, kA / k0A0; sequences stand for … in GGGAAUGGAUCCACAUCUACGAAUUC…UUCACUGCAGACUUGACGAAGCUG
Method in brief: as §1

biotinyl-Val-oxazolone = assay: self-aminoacylation, catalytic enhancement (BVO) (fold over background); higher = more active; k-Seq, kA / k0A0; sequences stand for … in GGGAAUGGAUCCACAUCUACGAAUUC…UUCACUGCAGACUUGACGAAGCUG
Method in brief: as §1

biotinyl-Leu-oxazolone = assay: self-aminoacylation, catalytic enhancement (BLO) (fold over background); higher = more active; k-Seq, kA / k0A0; sequences stand for … in GGGAAUGGAUCCACAUCUACGAAUUC…UUCACUGCAGACUUGACGAAGCUG
Method in brief: as §1

biotinyl-Trp-oxazolone = assay: self-aminoacylation, catalytic enhancement (BWO) (fold over background); higher = more active; k-Seq, kA / k0A0; sequences stand for … in GGGAAUGGAUCCACAUCUACGAAUUC…UUCACUGCAGACUUGACGAAGCUG
Method in brief: as §1

Row | Sequence | self-aminoacylation (biotinyl-Phe-oxazolone) | self-aminoacylation (biotinyl-Ile-oxazolone) | self-aminoacylation (biotinyl-Met-oxazolone) | self-aminoacylation (biotinyl-Val-oxazolone) | self-aminoacylation (biotinyl-Leu-oxazolone) | self-aminoacylation (biotinyl-Trp-oxazolone)
1 | ACUACCCUGGUCAUAGAGUGA [Fam2.1 aminoacylation ribozyme variant] | 38.1 | 3.26 | 6.89 | 3.19 | 7.11 | 7.77
2 | AAGUUUGCUCAUAGUCGCAAA [Fam3.1 aminoacylation ribozyme variant] | 1.45 | 1.49 | 1.69 | 1.41 | 1.44 | 1.49
3 | AUACUCCAAACAAUCGGUCUG [Fam1A.1 aminoacylation ribozyme variant] | 1.98 | 0.827 | 0.759 | 0.743 | 0.534 | 1.61
4 | CUACUUCAUACGAUCGGUCUG [Fam1A.1 aminoacylation ribozyme variant] | 0.597 | 0.61 | 0.624 | 0.852 | 0.526 | 0.824
5 | AUUGCCCUGGUGAUCGAGUGA [Fam2.1 aminoacylation ribozyme variant] | 36.1 | 2.77 | 5.63 | 2.82 | 5.06 | 6
6 | AAGUUUGCUAAGAGUCGCAAC [Fam3.1 aminoacylation ribozyme variant] | 0.845 | 1.21 | 1.07 | 1.19 | 1.27 | 1.28
7 | CUACUUCAAACAAACGGGCUG [Fam1A.1 aminoacylation ribozyme variant] | 1.65 | 1.2 | 0.993 | 0.934 | 0.999 | 0.862
8 | AAGUUUGCUAAUACUCGCAAG [Fam3.1 aminoacylation ribozyme variant] | 0.812 | 0.659 | 0.569 | 0.652 | 0.553 | 0.607
9 | AUUACCCUGGUCCUCCAGUGA [Fam2.1 aminoacylation ribozyme variant] | 49.6 | 4.44 | 7.44 | 3.79 | 8.6 | 9.12
10 | CUACUUGAAACAAUCGGUAUG [Fam1A.1 aminoacylation ribozyme variant] | 0.5 | 0.654 | 0.67 | 0.699 | 0.838 | 0.504
11 | CAGAUUGCUAAUAGUCGCAAG [Fam3.1 aminoacylation ribozyme variant] | 1.9 | 1.37 | 1.24 | 1.28 | 1.23 | 1.31
12 | AUUCACCUCGGUCAUGGGGUG [Fam2.2 aminoacylation ribozyme variant] | 28 | 2.57 | 3.94 | 2.96 | 4.31 | 4.7
13 | UAGUUUGCUAAUAGUCGAAAG [Fam3.1 aminoacylation ribozyme variant] | 6.07 | 1.33 | 1.09 | 1.15 | 1 | 3.49
14 | AAGUCUGCCAAUAGUCGCAAG [Fam3.1 aminoacylation ribozyme variant] | 1.53 | 1.18 | 1.84 | 1.06 | 0.879 | 1.28
15 | CUUCUUCAAACAUUCGGUCUG [Fam1A.1 aminoacylation ribozyme variant] | 1.05 | 1.03 | 1.15 | 1.23 | 1.26 | 1.39
16 | AAGUUUGAUAAUAGUCGAAAG [Fam3.1 aminoacylation ribozyme variant] | 1.03 | 0.705 | 0.568 | 0.592 | 0.543 | 0.785
17 | CCACGCUUGAAGCAAUCGGUC [Fam1B.1 aminoacylation ribozyme variant] | 0.547 | 0.895 | 0.861 | 1.28 | 0.714 | 1.01
18 | AUUCACCUAGGGAAUCGGGUG [Fam2.2 aminoacylation ribozyme variant] | 36.4 | 3.54 | 5.05 | 3.23 | 7.44 | 4.86
19 | AUCCACCUAGGUCGUCGGGUG [Fam2.2 aminoacylation ribozyme variant] | 9.53 | 2.36 | 2.62 | 2.56 | 3.5 | 2.22
20 | AGUCACCUAGGUCAUCGGGCG [Fam2.2 aminoacylation ribozyme variant] | 25.5 | 4.56 | 5.28 | 4.05 | 4.87 | 5.95
21 | AUUACCCUGGUCAUCCGGUGA [Fam2.1 aminoacylation ribozyme variant] | 52.5 | 6.78 | 8.7 | 6.25 | 9.32 | 9.05
